Reference: IntAct's records for PubMed 18511562

B1: Charged multivesicular body protein 4a (Homo sapiens), Q9BY43 (parent)
chain: MSGLGRLFGKGKKEKGPTPEEAIQKLKETEKILIKKQEFLEQKIQQELQTAKKYGTKNKRAALQALRRKKRFEQQLAQTDGTLSTLEFQREAIENATTNAEVLRTMELAAQSMKKAYQDMDIDKVDELMTDITEQQEVAQQISDAISRPMGFGDDVDEDELLEELEELEQEELAQELLNVGDKEEEPSVKLPSVPSTHLPAGPAPKVDEDEEALKQLAEWVS

Variants of: B1
Conditions: with pdc6i_human PDCD6IP

| effect of a mutation on the interaction | Variant |
| --- | --- |
| disrupting interaction | W220A |
| disrupting interaction | L217A |
| disrupting interaction | L214A |
